# Test results taken from the Immune Epitope Database (IEDB).
# Assays:
# HLA-A*24:02 [1] = experiment: IEDB peptide-MHC binding, purified MHC/competitive/fluorescence; ≥ and ≤ were set here for values at or beyond the usual limits of such assays; details: source organism: Zaire ebolavirus
# HLA-B*15:01 [2] = experiment: as above
# HLA-A*32:01 = experiment: IEDB peptide-MHC binding, purified MHC/competitive/radioactivity; filed as Kd, often an IC50 or EC50 that approximates it; ≥ and ≤ were set here for values at or beyond the usual limits of such assays
# HLA-B*57:01 [3] = experiment: as above
# HLA-B*58:01 = experiment: as above
# HLA-A*02:01 [4] = experiment: as above
# HLA-A*02:06 = experiment: as above
# HLA-A*02:17 = experiment: as above
# HLA-B*35:01 = experiment: as above
# HLA-B*51:01 [5] = experiment: as above; details: source organism: Dengue virus 4 Philippines/H241/1956
# HLA-B*53:01 = experiment: as above
# HLA-A*02:03 [6] = experiment: IEDB peptide-MHC binding, purified MHC/direct/fluorescence; filed as Kd, often an IC50 or EC50 that approximates it; ≥ and ≤ were set here for values at or beyond the usual limits of such assays; details: source organism: Araucaria virus
# HLA-A*02:12 = experiment: as above
# HLA-A*02:19 = experiment: as above; details: source organism: Araucaria virus
# HLA-A*03:01 = experiment: as above
# HLA-A*24:03 = experiment: as above
# HLA-A*68:02 [7] = experiment: as above; details: source organism: Araucaria virus
# HLA-A*26:01 = experiment: IEDB peptide-MHC binding, purified MHC/competitive/fluorescence; filed as Kd, often an IC50 or EC50 that approximates it; ≥ and ≤ were set here for values at or beyond the usual limits of such assays
# HLA-A*69:01 = experiment: as above
# HLA-B*15:17 = experiment: as above
# HLA-B*18:01 = experiment: as above
# HLA-B*27:03 = experiment: as above
# HLA-B*39:01 = experiment: as above
# HLA-B*46:01 = experiment: as above
# HLA-B*51:01 [8] = experiment: as above
# HLA-B*57:01 [9] = experiment: as above
# HLA-A*02:03 [10] = experiment: IEDB peptide-MHC binding, purified MHC/competitive/radioactivity; filed as Kd, often an IC50 or EC50 that approximates it; ≥ and ≤ were set here for values at or beyond the usual limits of such assays; details: source organism: Dengue virus 1 Brazil/97-11/1997
# HLA-A*68:02 [11] = experiment: as above; details: source organism: Dengue virus 1 Brazil/97-11/1997
# HLA-B*08:01 = experiment: as above; details: source organism: Dengue virus 1 Brazil/97-11/1997
# HLA-A*23:01 = experiment: as above; details: source organism: Dengue virus 1 Brazil/97-11/1997
# HLA-A*24:02 [12] = experiment: as above
# HLA-B*15:01 [13] = experiment: as above; details: source organism: Dengue virus 1 Brazil/97-11/1997
# HLA-A*01:01 = experiment: IEDB peptide-MHC binding, purified MHC/direct/fluorescence; filed as Kd, often an IC50 or EC50 that approximates it; ≥ and ≤ were set here for values at or beyond the usual limits of such assays; details: source organism: Reston ebolavirus - Reston
# HLA-A*02:01 [14] = experiment: as above
# HLA-A*02:01 [15] = experiment: IEDB peptide-MHC binding, purified MHC/competitive/fluorescence; ≥ and ≤ were set here for values at or beyond the usual limits of such assays; details: source organism: Vaccinia virus
# HLA-A*11:01 = experiment: as above; details: source organism: Zaire ebolavirus
# HLA-A*29:02 = experiment: IEDB peptide-MHC binding, purified MHC/direct/fluorescence; filed as Kd, often an IC50 or EC50 that approximates it; ≥ and ≤ were set here for values at or beyond the usual limits of such assays; details: source organism: Zaire ebolavirus
# HLA-B*15:01 [16] = experiment: IEDB peptide-MHC binding, purified MHC/competitive/fluorescence; filed as Kd, often an IC50 or EC50 that approximates it; ≥ and ≤ were set here for values at or beyond the usual limits of such assays; details: source organism: Zaire ebolavirus
# [17] = source organism: Zaire ebolavirus
# [18] = source organism: Dengue virus 3 Martinique/1243/1999
# [19] = source organism: Dengue virus 4 Philippines/H241/1956
# [20] = source organism: Araucaria virus
# [21] = source organism: Hantavirus HPR/02-73
# [22] = source organism: Dengue virus 4 Dominica/814669/1981
# [23] = source organism: Dengue virus 2 Jamaica/1409/1983
# [24] = source organism: Dengue virus 3 Singapore/8120/1995
# [25] = source organism: Dengue virus 1 Brazil/97-11/1997
# [26] = source organism: Dengue virus 1 Singapore/S275/1990
# [27] = source organism: Dengue virus 3 China/80-2/1980
sequence,measurement,setting,value
AFHKEGAFF,IC50,HLA-A*24:02 [1],0.0199 µM
same,IC50,HLA-B*15:01 [2]; [17],1.88 µM
ATGPITTLW,Kd,HLA-A*32:01; [18],0.221 µM
same,Kd,HLA-B*57:01 [3]; [18],0.0121 µM
same,Kd,HLA-B*58:01; [18],0.00489 µM
FSMGLLCLTL,Kd,HLA-A*02:01 [4]; [19],8.99 µM
same,Kd,HLA-A*02:06; [19],0.00849 µM
same,Kd,HLA-A*02:17; [19],0.084 µM
same,Kd,HLA-B*35:01; [19],3.07 µM
same,Kd,HLA-B*51:01 [5],≥ 69.6 µM
same,Kd,HLA-B*53:01; [19],0.333 µM
GFAIPIILK,Kd,HLA-A*02:03 [6],≥ 20 µM
same,Kd,HLA-A*02:12; [20],≥ 20 µM
same,Kd,HLA-A*02:19,≥ 20 µM
same,Kd,HLA-A*03:01; source organism: Juquitiba virus,6 µM
same,Kd,HLA-A*24:03; [20],≥ 20 µM
same,Kd,HLA-A*68:02 [7],≥ 20 µM
same,Kd,HLA-A*26:01; [21],≥ 20 µM
same,Kd,HLA-A*69:01; [21],≥ 20 µM
same,Kd,HLA-B*15:17; [21],≥ 20 µM
same,Kd,HLA-B*18:01; [21],≥ 20 µM
same,Kd,HLA-B*27:03; [21],≥ 20 µM
same,Kd,HLA-B*39:01; [21],≥ 20 µM
same,Kd,HLA-B*46:01; [21],≥ 20 µM
same,Kd,HLA-B*51:01 [8]; [21],≥ 20 µM
same,Kd,HLA-B*57:01 [9]; [21],≥ 20 µM
GSSIGKMFES,Kd,HLA-B*57:01 [3]; [22],1.83 µM
same,Kd,HLA-B*58:01; [22],0.251 µM
GSSIGQMFET,Kd,HLA-B*57:01 [3]; [23],1.08 µM
same,Kd,HLA-B*58:01; [23],1.51 µM
GTSLLFLNDM,Kd,HLA-B*57:01 [3]; [22],≥ 22.1 µM
HSSTWHYDDE,Kd,HLA-B*57:01 [3]; [24],6.58 µM
same,Kd,HLA-B*58:01; [24],0.866 µM
IILEFFLIVL,Kd,HLA-A*02:01 [4]; [23],0.109 µM
same,Kd,HLA-A*02:06; [23],0.325 µM
same,Kd,HLA-A*02:17; [23],0.802 µM
IILEFFLMVL,Kd,HLA-A*02:01 [4]; [19],0.0955 µM
same,Kd,HLA-A*02:06; [25],0.329 µM
same,Kd,HLA-A*02:17; [19],1.4 µM
IMAAILAYTI,Kd,HLA-A*02:01 [4]; [23],0.0306 µM
same,Kd,HLA-A*02:17; [23],1.6 µM
KTKLNDWDF,Kd,HLA-B*57:01 [3]; [18],0.0507 µM
MKITAEWLW,Kd,HLA-B*53:01; [23],1.09 µM
same,Kd,HLA-B*57:01 [3]; [23],0.0433 µM
same,Kd,HLA-B*58:01; [23],0.00543 µM
MLLMLLPTA,Kd,HLA-A*02:01 [4]; [26],0.000482 µM
same,Kd,HLA-A*02:06; [25],0.00108 µM
same,Kd,HLA-A*02:17; [26],0.161 µM
MLMTGTLAV,Kd,HLA-A*02:01 [4]; [26],0.0197 µM
same,Kd,HLA-A*02:03 [10],0.00047 µM
same,Kd,HLA-A*02:06; [25],0.00969 µM
same,Kd,HLA-A*02:17; [26],0.753 µM
same,Kd,HLA-A*32:01; [25],0.502 µM
same,Kd,HLA-A*68:02 [11],0.00971 µM
same,Kd,HLA-B*08:01,0.0225 µM
MLMTGTLAVF,Kd,HLA-A*02:01 [4]; [26],0.0751 µM
same,Kd,HLA-A*02:17; [26],0.0323 µM
same,Kd,HLA-A*23:01,0.055 µM
same,Kd,HLA-A*24:02 [12]; [25],0.296 µM
same,Kd,HLA-B*15:01 [13],0.00124 µM
same,Kd,HLA-B*35:01; [25],0.342 µM
MVAKYDLLV,Kd,HLA-A*01:01,≥ 20 µM
same,Kd,HLA-A*02:01 [14]; source organism: Reston ebolavirus - Reston,0.0141 µM
same,Kd,HLA-A*02:12; [17],≥ 20 µM
same,Kd,HLA-A*03:01; [17],≥ 20 µM
same,Kd,HLA-A*26:01; [17],≥ 20 µM
same,Kd,HLA-B*18:01; [17],≥ 20 µM
same,Kd,HLA-B*27:03; [17],≥ 20 µM
same,Kd,HLA-B*39:01; [17],≥ 20 µM
same,Kd,HLA-B*46:01; [17],≥ 20 µM
same,Kd,HLA-B*51:01 [8]; [17],≥ 20 µM
same,Kd,HLA-B*57:01 [9]; [17],≥ 20 µM
PMMIQTRAA,IC50,HLA-A*02:01 [15],18.2 µM
same,IC50,HLA-B*15:01 [2]; source organism: Vaccinia virus,≥ 298 µM
PSSVAARGYI,Kd,HLA-B*57:01 [3]; [19],16.4 µM
same,Kd,HLA-B*58:01; [19],0.512 µM
QLANAIFKL,Kd,HLA-A*02:01 [4]; [27],0.00409 µM
same,Kd,HLA-A*02:17; [27],0.0244 µM
SQKGQHIEG,IC50,HLA-A*11:01,≥ 186 µM
same,IC50,HLA-B*15:01 [2]; [17],46.5 µM
TSSQQKADW,Kd,HLA-B*57:01 [3]; [23],0.0291 µM
same,Kd,HLA-B*58:01; [23],0.186 µM
VLLLVTHYA,Kd,HLA-A*02:01 [4]; [27],0.00697 µM
same,Kd,HLA-A*02:17; [27],6.82 µM
VLSDLCNFL,Kd,HLA-A*02:01 [14]; source organism: Ebola virus - Gabon (1994-1997),0.005 µM
same,Kd,HLA-A*03:01; [17],≥ 20 µM
same,Kd,HLA-A*24:03; [17],≥ 20 µM
same,Kd,HLA-A*29:02,≥ 20 µM
same,Kd,HLA-A*26:01; [17],≥ 20 µM
same,Kd,HLA-A*69:01; [17],≥ 20 µM
same,Kd,HLA-B*15:01 [16],≥ 20 µM
same,Kd,HLA-B*15:17; [17],≥ 20 µM
same,Kd,HLA-B*18:01; [17],≥ 20 µM
same,Kd,HLA-B*27:03; [17],≥ 20 µM
same,Kd,HLA-B*39:01; [17],≥ 20 µM
same,Kd,HLA-B*46:01; [17],≥ 20 µM
same,Kd,HLA-B*51:01 [8]; [17],≥ 20 µM
same,Kd,HLA-B*57:01 [9]; [17],≥ 20 µM
VSAGESSIL,IC50,HLA-B*15:01 [2]; source organism: Vaccinia virus Copenhagen,≥ 87.4 µM
VTMTLWYMW,Kd,HLA-A*24:02 [12]; [19],0.0317 µM
same,Kd,HLA-B*53:01; [19],2.54 µM
same,Kd,HLA-B*57:01 [3]; [19],0.00752 µM
same,Kd,HLA-B*58:01; [19],0.00159 µM
YMWLGARFL,Kd,HLA-A*02:01 [4]; [23],0.00672 µM
same,Kd,HLA-A*02:17; [23],0.0942 µM
